Laboratory results from the supplement of paper PMC11246515.
± gives the standard deviation of the averaged measurements.

Assay: total protein half-life in vivo (active degradation + dilution); higher = more stable protein
[1] = E. coli NCM3722 delta-clpP, growth: N-lim chemostat, doubling time 6 h
[2] = E. coli NCM3722 delta-hslV, growth: N-lim chemostat, doubling time 6 h
[3] = E. coli NCM3722 delta-lon, growth: N-lim chemostat, doubling time 6 h
[4] = E. coli NCM3722 delta-smpB, growth: N-lim chemostat, doubling time 6 h
[5] = wild type E. coli NCM3722, growth: C-lim chemostat, doubling time 3 h
[6] = wild type E. coli NCM3722, growth: C-lim chemostat, doubling time 6 h
[7] = wild type E. coli NCM3722, growth: N-lim chemostat, doubling time 6 h
[8] = wild type E. coli NCM3722, growth: N-lim chemostat, doubling time 12 h
[9] = wild type E. coli NCM3722, growth: P-lim chemostat, doubling time 6 h
[10] = wild type E. coli NCM3722, growth: P-lim chemostat, doubling time 12 h
[11] = E. coli NCM3722 delta-clpP delta-lon delta-hslV, growth: N-lim chemostat, doubling time 6 h
[12] = wild type E. coli NCM3722, growth: C-lim chemostat, doubling time 12 h

Sequence	total protein half-life in vivo [1]	total protein half-life in vivo [2]	total protein half-life in vivo [3]	total protein half-life in vivo [4]	total protein half-life in vivo [5]	total protein half-life in vivo [6]	total protein half-life in vivo [7]	total protein half-life in vivo [8]	total protein half-life in vivo [9]	total protein half-life in vivo [10]	total protein half-life in vivo [11]	total protein half-life in vivo [12]
MIDPKKIEQIARQVHESMPKGIREFGEDVEKKIRQTLQAQLTRLDLVSREEFDVQTQVLLRTREKLALLEQRISELENRSTEIKKQPDPETLPPTL	6.97 ± 0.85 h	6.5 ± 1.2 h	5.8 ± 0.65 h	5.79 ± 0.91 h	3.5 ± 0.19 h	5.53 ± 0.24 h	4.27 ± 0.63 h	11.5 ± 5.3 h	4.66 ± 1.2 h	10.8 ± 0.66 h		
MLQNPIHLRLERLESWQHVTFMACLCERMYPNYAMFCQQTGFGDGQIYRRILDLIWETLTVKDAKVNFDSQLEKFEEAIPSADDFDLYGVYPAIDACVALSELVHSRLSGETLEHAVEVSKTSITTVAMLEMTQAGREMSDEELKENPAVEQEWDIQWEIFRLLAECEERDIELIKGLRADLREAGESNIGIIFQQ	5.16 ± 0.66 h	4.79 ± 0.12 h	5.23 ± 0.55 h	4.12 ± 1.1 h	3.1 ± 0.088 h	5.93 ± 0.21 h	4.84 ± 0.12 h	8.11 ± 0.86 h	6.28 ± 0.52 h	13.7 ± 1.8 h	5.09 ± 0.47 h	
MFGYRSNVPKVRLTTDRLVVRLVHDRDAWRLADYYAENRHFLKPWEPVRDESHCYPSGWQARLGMINEFHKQGSAFYFGLFDPDEKEIIGVANFSNVVRGSFHACYLGYSIGQKWQGKGLMFEALTAAIRYMQRTQHIHRIMANYMPHNKRSGDLLARLGFEKEGYAKDYLLIDGQWRDHVLTALTTPDWTPGR [P0A948]	3.52 ± 0.15 h	3.89 ± 0.49 h	4.189 ± 0.017 h	4.098 ± 0.021 h	3.07 ± 0.059 h	5.02 ± 0.078 h	3.57 ± 0.065 h	5.92 ± 0.15 h	5.38 ± 0.41 h		4.56 ± 0.93 h	8.98 ± 0.43 h
MMHRLNLNGYEPDRHHEAAVAFCIHAGTDELTSPVHQHRKGQLILALHGAITCTVENALWMVPPQYAVWIPGGVEHSNQVTANAELCFLFIEPSAVTMPTTCCTLKISPLCRELILTLANRTTTQRAEPMTRRLIQVLFDELPQQPQQQLHLPVSSHPKIRTMVEMMAKGPVEWGALGQWAGFFAMSERNLARLIVKETGLSFRQWRQQLQLIMALQGLVKGDTVQKVAHTLGYDSTTAFITMFKKGLGQTPGRYIARLTTVSPQSAKPDPRQ											4.97 ± 0.56 h	
MKHSVSVTCCALLVSSISLSYAAEVPSGTVLAEKQELVRHIKDEPASLDPAKAVGLPEIQVIRDLFEGLVNQNEKGEIVPGVATQWKSNDNRIWTFTLRDNAKWADGTPVTAQDFVYSWQRLVDPKTLSPFAWFAALAGINNAQAIIDGKATPDQLGVTAVDAHTLKIQLDKPLPWFVNLTANFAFFPVQKANVESGKEWTKPGNLIGNGAYVLKERVVNEKLVVVPNTHYWDNAKTVLQKVTFLPINQESAATKRYLAGDIDITESFPKNMYQKLLKDIPGQVYTPPQLGTYYYAFNTQKGPTADQRVRLALSMTIDRRLMTEKVLGTGEKPAWHFTPDVTAGFTPEPSPFEQMSQEELNAQAKTLLSAAGYGPQKPLKLTLLYNTSENHQKIAIAVASMWKKNLGVDVKLQNQEWKTYIDSRNTGNFDVIRASWVGDYNEPSTFLTLLTSTHSGNISRFNNPAYDKVLAQASTENTVKARNADYNAAEKILMEQAPIAPIYQYTNGRLIKPWLKGYPINNPEDVAYSRTMYIVKH	5.6 ± 0.17 h	6.96 ± 0.47 h	6.18 ± 0.087 h	5.63 ± 0.21 h	3.26 ± 0.29 h	6.21 ± 0.43 h	6.41 ± 0.44 h	12.1 ± 0.92 h	5.86 ± 0.16 h	12.4 ± 1.1 h	5.12 ± 0.18 h	10.1 ± 0.25 h
MVDSKKRPGKDLDRIDRNILNELQKDGRISNVELSKRVGLSPTPCLERVRRLERQGFIQGYTALLNPHYLDASLLVFVEITLNRGAPDVFEQFNTAVQKLEEIQECHLVSGDFDYLLKTRVPDMSAYRKLLGETLLRLPGVNDTRTYVVMEEVKQSNRLVIKTR [P0ACJ0]	6.63 ± 0.76 h	6.65 ± 0.079 h	7.54 ± 0.57 h	6.08 ± 0.29 h	3.27 ± 0.28 h	6.23 ± 0.33 h	5.82 ± 0.65 h	12 ± 0.67 h	5.73 ± 0.45 h	14 ± 0.69 h	6.5 ± 0.13 h	10.8 ± 0.19 h
MTHLPHWWQNGVIYQIYPKSFQDTTGSGTGDLRGVIQHLDYLHKLGVDAIWLTPFYVSPQVDNGYDVANYTAIDPTYGTLDDFDELVTQAKSRGIRIILDMVFNHTSTQHAWFREALNKESPYRQFYIWRDGEPETPPNNWRSKFGGSAWRWHAESEQYYLHLFAPEQADLNWENPAVRAELKKVCEFWADRGVDGLRLDVVNLISKDPRFPEDLDGDGRRFYTDGPRAHEFLHEMNRDVFTPRGLMTVGEMSSTSLEHCQRYAALTGSELSMTFNFHHLKVDYPGGEKWTLAKPDFVALKTLFRHWQQGMHNVAWNALFWCNHDQPRIVSRFGDEGEYRVPAAKMLAMVLHGMQGTPYIYQGEEIGMTNPHFTRITDYRDVESLNMFAELRNDGRDADELLAILASKSRDNSRTPMQWSNGDNAGFTAGEPWIGLGDNYQQINVEAALADDSSVFYTYQKLIALRKQEAILTWGNYQDLLPNSPVLWCYRREWKGQTLLVIANLSREIQPWQAGQMRGNWQLVMHNYEEASPQPCAMNLRPFEAVWWLQK					2.39 ± 0.28 h	1.98 ± 0.55 h				5.64 h		2.82 ± 0.88 h
MEMLEEHRCFEGWQQRWRHDSSTLNCPMTFSIFLPPPRDHTPPPVLYWLSGLTCNDENFTTKAGAQRVAAELGIVLVMPDTSPRGEKVANDDGYDLGQGAGFYLNATQPPWATHYRMYDYLRDELPALVQSQFNVSDRCAISGHSMGGHGALIMALKNPGKYTSVSAFAPIVNPCSVPWGIKAFSSYLGEDKNAWLEWDSCALMYASNAQDAIPTLIDQGDNDQFLADQLQPAVLAEAARQKAWPMTLRIQPGYDHSYYFIASFIEDHLRFHAQYLLK	5.61 ± 0.89 h		6.09 ± 0.43 h	5.19 ± 0.2 h	3.5 ± 0.13 h	5.59 ± 0.15 h	5.67 ± 0.38 h	8.798 ± 0.034 h	6.2 ± 0.11 h	11.9 ± 1.7 h	5.79 ± 0.058 h	13 ± 2.8 h
